Experimental data published in paper PMC3521694 (PLoS Pathogens, 2012).

Target: full-length VipD (vacuolar protein sorting inhibitor protein D) (Legionella pneumophila, UniProt Q5ZRP9 1-621)
Test: ITC; […]; 25°C; 20 mM Tris-HCl pH 7.5, 100 mM NaCl; iTC200
Conditions: both partners purified

| Binder | Kd |
| --- | --- |
| Rab22a(1-175):GDP (domain or fragment, also called wild-type Rab22a(1-175)) MALRELKVCLLGDTGVGKSSIVWRFVEDSFDPNINPTIGASFMTKTVQYQNELHKFLIWDTAGQERFRALAPMYYRGSAAAIIVYDITKEETFSTLKNWVKELRQHGPPNIVVAIAGNKCDLIDVREVMERDAKDYADSIHAIFVETSAKNAININELFIEISRRIPSTDANLPS | 0.123 µM |
| Rab5b(1-190):GDP (domain or fragment, also called wild-type Rab5b(1-190)) MTSRSTARPNGQPQASKICQFKLVLLGESAVGKSSLVLRFVKGQFHEYQESTIGAAFLTQSVCLDDTTVKFEIWDTAGQERYHSLAPMYYRGAQAAIVVYDITNQETFARAKTWVKELQRQASPSIVIALAGNKADLANKRMVEYEEAQAYADDNSLLFMETSAKTAMNVNDLFLAIAKKLPKSEPQNLG | 3.15 µM |
